Entries after “also recorded” stand apart in the source; their conditions may differ.
How the values were obtained:
[1] = molecular target: T1, recombinant fibronectin 11A12 domain (EDA) (Homo sapiens, UniProt P02751); test: Biacore surface plasmon resonance binding analysis; settings: SPR, BIAcore X100, CM5 chip coated with recombinant fibronectin 11A12 domain
T1 construct: recombinant fibronectin 11A12 domain
Description: Binding affinity was determined by surface plasmon resonance using a BIAcore X100 instrument using a CM5 chip coated with recombinant fibronectin 11A12 domain. Samples were injected as serial-dilution, using a concentration range from […] to 125 nM.

[2] = Melting temperature (Protein Thermal Shift kit); type: physicochemical
Description: The melting temperature of the different mIL9 conjugates was determined using a StepOne real-Time PCR system in combination with the Protein Thermal Shift kit.

[3] = Storage stability (OD280, SEC, SDS-PAGE); type: physicochemical
Description: Storage stability of F8(scFv)-mIL9-F8(scFv) was assessed by size exclusion chromatography profile and analytical SDS-PAGE analysis of the protein after: a) incubation at 37° C. for 3, 5 and 7 days, b) incubation at 4° C. for 7 days and c) a series of 3 freeze and thaw cycles.

[4] = system: Monocrotaline (MCT) induced pulmonary hypertension (PH) in C57BL/6 mice; test: Right heart catheterization in MCT induced PH mouse model (Example 3); type: in vivo
Text: (§1) Pulmonary Hypertension (PH) was induced in C57BL/6 mice (bodyweight: 25-30 g). The animals were obtained from ZET facility (Zentale Experimentelle Tierhaltung) of the University Hospital Jena (UKJ, Jena, Germany). Prior to PH induction, mice were allowed to acclimatize for at least 7 days with ad libitum access to food and water as well as controlled light/dark cycles. As shown in the overview of the experimental design and treatment schedule (FIG. 6), the following experimental groups were investigated: • sham induced controls (n=6) • MCT induced PH (n=8) • MCT induced PH+MACI (n=7) • MCT induced PH+F8(scFv)-mIL9-F8(scFv) (also named F8-IL9) (n=6) • MCT induced PH+KSF(scFv)-mIL9-KSF(scFv) (also named KSF-IL9) (n=6)
For PH induction, the Monocrotaline (MCT) method was used.
The sham induced controls were injected with 30 μl NaCl not containing MCT at day 1 (single dose; intraperitoneally, i.p.). […] The other 4 experimental groups were injected with MCT to induce PH (single dose; intraperitoneally, i.p.; 60 mg/kg body weight; volume 30 μl). Animals in the MCT induced PH+MACI group received the drug (Macitentan) from day 14 to day 28 (once daily; per os; 15 mg/kg body weight). […]
(§2) Statistical analyses were performed using IBM SPSS statistical software, version 25.0 (IBM SPSS Statistics for Windows. Armonk, N.Y., USA). Data are expressed as mean±standard deviation. […]

[5] = system: Monocrotaline (MCT) induced pulmonary hypertension (PH) in C57BL/6 mice; test: Echocardiographic assessment in MCT induced PH mouse model (Example 3); type: in vivo; settings: in contrast to untargeted KSF(scFv)-mIL9-KSF(scFv)
Text: as §1
For PH induction, the Monocrotaline (MCT) method was used. […]
(§3) Echocardiographic assessment was performed on day 28 (FIG. 6) using the Vevo 770 Rodent-Ultrasound-System, Visual Sonic, Canada, 17 MHz probe RMV176. […] Body temperature and respiratory rate were continuously monitored. All surrogate parameters of right ventricular (RV) morphology and function were assessed, among others, RV basal and medial diameters (in mm), RV length (in mm), and RV fractional area change (FAC, in %).
as §2

[6] = system: Monocrotaline (MCT) induced pulmonary hypertension (PH) in C57BL/6 mice; test: Right heart catheterization in MCT induced PH mouse model (Example 4); type: in vivo; settings: in contrast to KSF containing control immunocytokines
Text: To induce Pulmonary Hypertension (PH), C57BL/6 mice (bodyweight: 25-30 g) were used. The animals were obtained from ZET facility (Zentrale Experimentelle Tierhaltung) of the University Hospital Jena (UKJ, Jena, Germany). Prior to PH induction, mice were allowed to acclimatize for at least 7 days with ad libitum access to food and water as well as controlled light/dark cycles. In this set of experiments, 50 animals were investigated divided into the following 7 experimental groups: • sham induced controls (n=10) • MCT induced PH (n=8) • MCT induced PH+MACI (n=8) • MCT induced PH+F8mIL9F8 in CrAb format (n=6) • MCT induced PH+KSFmIL9KSF in CrAb format (n=6) • MCT induced PH+F8_(IgG-HC4)-mIL9 (n=6) • MCT induced PH+KSF_(IgG-HC4)-mIL9 (n=6)
For PH induction, the Monocrotaline (MCT, Carl Roth, Germany) method was used.
The sham induced controls were injected with 30 μl NaCl not containing MCT at day 1 (single dose; intraperitoneally, i.p.). […] The other 6 experimental groups were injected with MCT (single dose; intraperitoneally, i.p.; 60 mg/kg body weight; volume 30 μl). Animals in the MCT induced PH+MACI group received the drug (Macitentan, Actelion Pharmaceuticals Ltd.) from day 14 to day 28 (once daily; per os; 15 mg/kg body weight).
Animals in the MCT induced PH+F8mIL9F8 in CrAb format group received F8mIL9F8 3 times on days 14, 16 and 18 (intravenously, i.v.; 200 μg/injection; volume 154 μl). Animals in the MCT induced PH+KSFmIL9KSF in CrAb format group received KSFmIL9KSF 3 times on days 14, 16 and 18 (intravenously, i.v.; 198 μg/injection; volume 182 μl).
Animals in the MCT induced PH+F8_(IgG-HC4)-mIL9 group received F8_(IgG-HC4)-mIL9 3 times on days 14, 16 and 18 (intravenously, i.v.; 261 μg/injection; volume 137 μl). Animals in the MCT induced PH+KSF_(IgG-HC4)-mIL9 group received KSF_IgG-HC4mIL9 3 times on days 14, 16 and 18 (intravenously, i.v.; 258 μg/injection; volume 161 μl).
On day 28 after MCT injection, mice of all experimental groups were deeply anesthetized with a single dose of 100 mg/kg body weight ketamine and 10 mg/kg body weight Xylazin in approximately 60 μl each administered i.p.
Right heart catheterization using a 1.4 F micro conductance pressure-volume catheter (Model SPR-839; Millar Instruments Inc; PowerLab system, ADInstruments Ltd., Oxford, UK) was performed via the right vena jugularis interna to measure the systolic right ventricular pressure and thereby verify the success of the experimental setting. Mice were then sacrificed in deep anesthesia and analgesia to carry out cardiac blood collection after thoracotomy and to harvest the organs.
as §2

[7] = system: Monocrotaline (MCT) induced pulmonary hypertension (PH) in C57BL/6 mice; test: Echocardiographic assessment in MCT induced PH mouse model (Example 4); type: in vivo; settings: in contrast to KSF containing control immunocytokines
Description: To induce Pulmonary Hypertension (PH), C57BL/6 mice (bodyweight: 25-30 g) were used. The animals were obtained from ZET facility (Zentrale Experimentelle Tierhaltung) of the University Hospital Jena (UKJ, Jena, Germany). Prior to PH induction, mice were allowed to acclimatize for at least 7 days with ad libitum access to food and water as well as controlled light/dark cycles. […]
as §3, with “28” for “28 (FIG. 6)”, “tricuspid annular plane systolic excursion (TAPSE, in mm), right atrial” for “and RV fractional”, “(RA area,” for “change (FAC,”, “mm^2) or main pulmonary artery diameter (MPA, in mm).” for “%).”
as §2

T1 sequence (P02751 1629-1905 limits assumed): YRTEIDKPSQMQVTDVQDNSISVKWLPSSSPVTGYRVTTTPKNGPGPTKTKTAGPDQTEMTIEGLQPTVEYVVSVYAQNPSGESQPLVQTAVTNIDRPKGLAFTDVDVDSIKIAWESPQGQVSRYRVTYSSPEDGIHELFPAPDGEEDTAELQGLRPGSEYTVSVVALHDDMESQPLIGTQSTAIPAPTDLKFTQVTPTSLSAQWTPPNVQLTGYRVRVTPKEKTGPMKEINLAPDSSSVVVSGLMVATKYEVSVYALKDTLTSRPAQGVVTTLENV

B1: F8(scFv)-mIL9-F8(scFv): murine IL9 conjugated at N- and C-terminus to an F8 scFv via 10 amino acid linker, CrAb format; SEQ ID NO: 17 (protein)
chain: EVQLLESGGGLVQPGGSLRLSCAASGFTFSLFTMSWVRQAPGKGLEWVSAISGSGGSTYYADSVKGRFTISRDNSKNTLYLQMNSLRAEDTAVYYCAKSTHLYLFDYWGQGTLVTVSSGGGGSGGGGSGGGGEIVLTQSPGTLSLSPGERATLSCRASQSVSMPFLAWYQQKPGQAPRLLIYGASSRATGIPDRFSGSGSGTDFTLTISRLEPEDFAVYYCQQMRGRPPTFGQGTKVEIKSGGSGSGGGGQRCSTTWGIRDTNYLIENLKDDPPSKCSCSGNVTSCLCLSVPTDDCTTPCYREGLLQLTNATQKSRLLPVFHRVKRIVEVLKNITCPSFSCEKPCNQTMAGNTLSFLKSLLGTFQKTEMQRQKSRPSGGSGSGGGGEVQLLESGGGLVQPGGSLRLSCAASGFTFSLFTMSWVRQAPGKGLEWVSAISGSGGSTYYADSVKGRFTISRDNSKNTLYLQMNSLRAEDTAVYYCAKSTHLYLFDYWGQGTLVTVSSGGGGSGGGGSGGGGEIVLTQSPGTLSLSPGERATLSCRASQSVSMPFLAWYQQKPGQAPRLLIYGASSRATGIPDRFSGSGSGTDFTLTISRLEPEDFAVYYCQQMRGRPPTFGQGTKVEIK
modifications: F8(scFv)-mIL9-F8(scFv) (“CrAb” format)
apparent KD [1]: in the nM range
increase in melting temperature compared with diabody formats F8(db)-mIL9 and mIL9-F8(db) [2]: ~3 °C
stability to freeze and thawing (protein concentration, SEC profile, SDS-PAGE) ([3]; 3 cycles of freeze and thawing): no loss of concentration, no changes in the size exclusion profile or SDS-PAGE analysis; also recorded: no loss of concentration
thermal stability over time (protein concentration, SEC profile, SDS-PAGE) ([3]; incubated at 4° for up to 7 days): no loss of concentration, no changes in the size exclusion profile or SDS-PAGE analysis; also recorded: no loss of concentration
thermal stability over time (protein concentration, SEC profile, SDS-PAGE) ([3]; incubated at 37° C. for up to 7 days): no loss of concentration, no changes in the size exclusion profile or SDS-PAGE analysis; also recorded: no loss of concentration
treatment effects relative to MACI (result in words) ([4]; MACI 15 mg/kg per os once daily day 14 to 28): at least comparable
pressure values in the right ventricle (result in words) ([4]; in contrast to untargeted KSF(scFv)-mIL9-KSF(scFv), 200 μg/injection i.v. days 14, 16, 18): significantly reduce
echocardiographic signs of right ventricular load and dysfunction (result in words) [5]: significantly improved the majority
pressure values in the right ventricle, RVPsys (result in words) [6]: significantly reduced
echocardiographic signs of right ventricular load and dysfunction (result in words) [7]: significantly improved a variety
